In the assay the target is Spike-RBD RBD (Severe acute respiratory syndrome …, UniProt P0DTC2). The experiment in a line: ELISA. A general note: In an ELISA, binding on a coated surface is turned into a signal by an enzyme label.

B1: Platelet Factor 4 (protein)
chain: SQVRPRHITSLEVIKAGPHCPTAQLIATLKNGRKICLDLQAPLYKKIIKKLLES
Take B1: the Kd was ~180 nM.

The term Kd denotes the constant that tells how readily two partners part at equilibrium. Low values mean a tighter complex, high ones a looser complex.

The record behind these values is paper PMC8395316 (2021).
